Here are results for five molecules from patent US10654917B2, “Antibody molecules and peptide delivery systems for use in alzheimer's disease and related disorders” (TECHNOPHAGE, INVESTIGAÇĀO E DESENVOLVIMENTO EM …, priority 2015, dated 2020).

Series [1] has as its system in vitro model of the BBB (bEnd3 cells). Kind of series: Transmigration of radiolabelled peptides across in vitro BBB model. The class given is in vitro ADME. As to the method:
Using the same in vitro model of the BBB described above, peptides labelled with technetium and gallium were tested for the ability to cross endothelial barrier. For each peptide, bEnd3 cells cultured on “tissue culture inserts” were incubated with 5 ρCimL^−1-labelled peptide for different incubation times: 15 min, 5 h and 24 h. As a control, the model without cells was used (Control no cells) or (Filters) and compared to models with cells (BBB) or (Cells).
FIGS. 21A-21F show the percent activity of the radioisotope technetium-labelled peptides at the apex and base after 5 hours of incubation with the in vitro model described above, using the BBB-model or no cells (as a control); and values were obtained from two independent assays. […] Moreover, the results indicated promising candidates. Specifically, for each of pepH1 and pepH3, there was an overpass of 50% in the control, compared with only 20% in the presence of a cell barrier. The translocation of pepH2 was not observed in either the control nor in the BBB model.
Results for the incubations of 15 minutes, 5 hours, and 24 hours are shown together in FIGS. 22A-22F. That is, FIGS. 22A-22F show the percent activity of the radioisotope technetium-labelled peptides at the apex and base after 15 minutes, 5 hours, and 24 hours of incubation with the in vitro model described above, using the BBB-model or no cells (as a control); and values were obtained from two independent assays. Differences again were observed, confirming the integrity of the barrier, as well as identifying peptides that crossed the barrier. […] PepR′ thus was excluded from further tests.
(§1) Table 9 summarizes results regarding uptake (internalization) and cellular interaction, as well as transmigration across an in vitro model for BBB, for peptides labelled with technetium and gallium, after 15 minutes, 5 hours, and 24-hours of incubation, based on percent recovery of radiopeptide. The Table lists the peptides, providing each peptide's name, % BBB transmigration, % cellular interaction, and % internalized, each after […], 5 hours, and 24 hours of incubation.

In series [2] the test system is bEnd3 cells. Kind of series: MTT cell viability assay. Type of series: cell-based. The following applies: for effect on cell viability: 0.1-100 μM (pepM′ 0.1-50 μM), 24 hours; for cell death: concentration below 40 μM, peptide in DMSO. The method, then:
To test possible toxicity of selected peptides to BBB cells, 5×10^4 bEnd3 cells were cultured in 96-well plates, at 100 μL/well, and incubated for 24 hours. The peptides then were added at concentrations of 0.1-100 μM, with the exception of pepM′ (which was added at concentrations of 0.1-50 μM). As a control providing 100% of viability, a well with serum-free media was included.
After 24 hours of incubation, a MTT assay was performed, which is a colorimetric assay for assessing cell metabolic activity. A MTT solution at 5 mg/mL in PBS was added to each well and incubated for 2 hours. After this period, the solution was removed and DMSO added to solubilize violet crystals formed. Absorbance was measured at 540 nm. The viability percentage [Absorbancepeptide-treated cells/Absorbanceuntreated-cells)*100] was calculated and IC50 values were calculated from three independent assays.
As FIGS. 24A-24E show, the selected peptides have no effect on cell viability, specifically, there was no observable nor measurable effect using the assay described.

A short description of series [3]: Biodistribution of technetium-labelled peptides. Type of series: in vivo, CD1 mice. As to the method:
To evaluate the capacity to cross the BBB in vivo, the selected peptides, pepH1 and pepH3, were analyzed for biodistribution in CD1 mice. The peptides were labelled with technetium at a final concentration of 8.5×10^−5 M and diluted in PBS. CD1 mice were injected (iv injection, tail vein). The mice were sacrificed by cervical dislocation after 5 and 60 minutes of incubation. The tissues of interest were dissected and washed to remove excess blood, weighed, and measured for radioactivity. Technetium radioactivity of the different peptides was measured for different organs.
Initial results are presented in Table 11, where “% I.A. refers to the “% injected activity”, that is, the amount of radioactivity measured in a given organ compared to the total originally injected.
The biodistribution studies were repeated, using higher doses of each peptide, specifically, a one hundred fold increase, as well as using PepH2 as a negative control, and allowing incubation for 2 minutes and 60 minutes. Tissue biodistribution profile in percentage of injected radiopeptide activity per gram of tissue/organ was measured and results are presented in Table 12.

The subject of series [4] is bEnd3 cells. The series is described as follows: Uptake test: cellular interaction (acid wash) and internalization (lysate). Type of series: cell-based. The method, then:
In addition to testing models of BBB, an uptake test was performed to determine the internalizing ability of the candidate peptides. BEnd3 cells were cultured in 24 well plates. At each time point, the medium containing the peptide, which had not interacted with the cells, was collected. In the next step, the cells were washed with an acidic buffer that releases peptides more strongly bound to the cell membrane (sample acid wash). Finally, the cells were lysed to release internalized peptides and to quantify the activity inside the cells. Results are showing in FIGS. 23A-23E.
FIGS. 23A-23E show percent activity of the radioisotope technetium-labelled peptides in the media, wash buffer (acid wash) and lysate, after 15 minutes, 5 hours, and 24 hours of incubation with bEnd3 cells; and values were obtained from two independent assays. […] PepM′, as well as showing high transmigration (about 50%), also appeared to become internalized and accumulated within the cells (about 13% of radioactivity in the lysate).
as §1

The nature of series [5]: Features of peptides: isoelectric point, charge. The class given is physicochemical. The following applies: original peptide. From the text: Table 7 lists each peptide's name, isoelectric point (PI), charge (number of positive residues), calculated mass (in Da), and ion found; as well as the name, calculated mass, and found ion for the corresponding conjugate; and also retention times in HPLC and the partition coefficient (log Po/w). These values allowed the determination of the hydrophilic nature of peptides, where pepH1 and pepH4 were identified as the most hydrophilic peptides.

Details of series [6]: species or system CD1 mice. As to conditions: mouse, in vivo. The method, then:
The different antibody-peptide constructs were used in biodistribution assays, and results compared with the biodistribution of the respective DEN2C peptides (pepH1, pepH2, pepH3, and pepM′, chemically synthesized). […] After expression and purification, the sdAbs and sdAb-peptide constructs were conjugated to technetium (^99Tc) and a biodistribution assay was performed, as previously described.
Tables 14-16 show the biodistribution of different anti-BAP42 sdAbs and constructs thereof with different peptides (“pepH3”).

The mark [7] stands for this setting: 99mTc, 24 hours, listed as PepHM′.

On to KEIGRMLNILNRRRR [PepR′], for which the BBB transmigration result in series [1] (99mTc, 24 hours) is “more limited in crossing the barrier”.
Consider KLFMALVAFLRFLT [PepH2], for which the “effect on cell viability” value in the series with bEnd3 cells [2] is “small decrease in viability”. The cell death entry in the series on bEnd3 cells [2] is “no cell death”. Moreover, the “radioactivity levels in the brain” value in series [3] (80 μg, after 60 minutes) worked out at 0.2%. The “radioactivity in the brain” value in series [3] (140 μg (pepH1, pepH3) or 80 μg (pepH2), 2 min) is 0.37%. For the same molecule, the excreted in series [3] (140 μg (pepH1, pepH3) or 80 μg (pepH2), after 60 min) amounted to 12.7%. Moreover, in series [3] (after 2 min), the brain uptake result is listed as “rapid brain uptake”. Further, in series [3] (mouse, in vivo), the brain washout entry is on record as “brain washout was slower”. Further, the Cellular interaction with bEnd3 cells [4] (99mTc, 0.25 hours) was 1.60 ± 0.3%; with bEnd3 cells [4] (99mTc, 5 hours) it was 5.95 ± 3.0%; with bEnd3 cells [4] (99mTc, 24 hours) it was 2.20 ± 0.4%; with bEnd3 cells [4] (GaCl3, 0.25 hours) it was 0.77 ± 0.1%; with bEnd3 cells [4] (GaCl3, 5 hours), 1.48 ± 0.1%; in the series with bEnd3 cells [4] (GaCl3, 24 hours) it was 1.16 ± 0.1%. For the same molecule, the Internalization with bEnd3 cells [4] (99mTc, 0.25 hours) stood at 2.15 ± 1.2%; with bEnd3 cells [4] (99mTc, 5 hours), 24.8 ± 2.0%; in the series on bEnd3 cells [4] (GaCl3, 0.25 hours), 0.84 ± 0.1%; with bEnd3 cells [4] (GaCl3, 5 hours), 6.97 ± 0.3%; with bEnd3 cells [4] (GaCl3, 24 hours), 9.24 ± 1.2%. The “Charge (number of positive residues)” value in series [5] was determined as 2. In series [5], the “PI (isoelectric point)” value is recorded as 11. Moreover, the BBB transmigration is given as 0.79 ± 0.7% in series [1] (99mTc, 0.25 hours); 5.21 ± 3.3% in series [1] (99mTc, 5 hours); “not observed” in series [1] (99mTc, 5 hours, listed as pepH2); 9.32 ± 2.5% in series [1] (99mTc, 24 hours); 9% in series [1] (99mTc, 24 hours, listed as pepH2); 0.33 ± 0.1% in series [1] (GaCl3, 0.25 hours). Further, the BBB transmigration in series [1] (GaCl3, 5 hours) amounted to 4.06 ± 0.3%; in series [1] (GaCl3, 24 hours), 13.51 ± 0.7%.
For KSKAINVLRGFRKEIGRMLNILN [PepH4], the “where the radiopeptide is found in the uptake test (media, acid wash, lysate)” value in the series on bEnd3 cells [4] (99mTc) was “mainly remained in the incubation medium”. Moreover, the Cellular interaction amounted to 2.06 ± 0.3% with bEnd3 cells [4] (99mTc, 0.25 hours); 10.10 ± 0.1% in the series with bEnd3 cells [4] (99mTc, 5 hours); 10.23 ± 0.8% with bEnd3 cells [4] (99mTc, 24 hours); 4.06 ± 0.2% with bEnd3 cells [4] (GaCl3, 0.25 hours); 3.00 ± 0.1% in the series on bEnd3 cells [4] (GaCl3, 5 hours); 3.82 ± 0.1% in the series with bEnd3 cells [4] (GaCl3, 24 hours). In addition, the Internalization in the series on bEnd3 cells [4] (99mTc, 0.25 hours) amounted to 0.17 ± 0.0%; in the series with bEnd3 cells [4] (99mTc, 5 hours), 1.53 ± 0.0%; in the series with bEnd3 cells [4] (99mTc, 24 hours) it was 2.83 ± 0.2%; in the series with bEnd3 cells [4] (GaCl3, 0.25 hours), 0.26 ± 0.0%; in the series on bEnd3 cells [4] (GaCl3, 5 hours) it was 0.78 ± 0.0%; with bEnd3 cells [4] (GaCl3, 24 hours), 1.55 ± 0.1%. The “Charge (number of positive residues)” value in series [5] is reported as 6. Further, the “PI (isoelectric point)” value in series [5] stood at 11.7. The BBB transmigration is on record as 3.30 ± 0.5% in series [1] (99mTc, 0.25 hours); 30.08 ± 1.6% in series [1] (99mTc, 5 hours); 0.93 ± 0.1% in series [1] (GaCl3, 0.25 hours); 16.60 ± 1.1% in series [1] (GaCl3, 5 hours); 60.79 ± 2.6% in series [1] (GaCl3, 24 hours).
Take LVAFLRFLTIPPTAGILKRW [PepM′]: the “effect on cell viability” value with bEnd3 cells [2] is recorded as “small decrease in viability”. Further, the cell death result with bEnd3 cells [2] is “no cell death”. In addition, the Cellular interaction with bEnd3 cells [4] (99mTc, 24 hours) was found to be 8.32 ± 1.9%; in the series with bEnd3 cells [4] (GaCl3, 24 hours) it was 2.23 ± 0.1%. Further, the Internalization entry in the series with bEnd3 cells [4] (99mTc, 24 hours) is “about 13%”; in the series on bEnd3 cells [4] (setting [7]), 12.81 ± 2.0%; with bEnd3 cells [4] (GaCl3, 24 hours) it was 3.68 ± 0.0%. Further, the “Charge (number of positive residues)” value in series [5] is listed as 3. The “PI (isoelectric point)” value in series [5] came out at 12.0. Moreover, the BBB transmigration result in series [1] (99mTc, 24 hours) was “about 50%”; in series [1] (setting [7]), 53.47 ± 3.1%; in series [1] (99mTc, 24 hours, listed as pepM), around 50%; in series [1] (GaCl3, 24 hours) it was 47.31 ± 1.2%.

B1: #27in: anti-BAP42 sdAb, SEQ ID NO: 4 (antibody, V domains shown)
VL: ELVLTQTPSSVSAAVGGTVTINCQASQSVSNRLAWYQQKPGQPPKLLIYGASRLESGVPSRFRGSGSGTEFTLTISGMKAEDAATYYCQSCYYSVGVTFGAGTNVEIK
With B1, in series [6], the “factor by which washout from the brain is slowed on linking to delivery peptide pepH3” value is reported as “about 2” and the “factor of increase of presence in the brain on linking to delivery peptide pepH3” value is “about 6”.
